Laboratory results published in patent US20110165161A1, “ANTI-EPCAM ANTIBODIES THAT INDUCE APOPTOSIS OF CANCER CELLS AND METHODS USING SAME” (priority 2009, published 2011).

T1: human EpCAM (CHO/EpCAM cells) (Homo sapiens, UniProt P16422)
T1 construct: full-length of human EpCAM (aa 1-314); expressed in transfected cells; host or cells: CHO (Chinese hamster ovary) cells
T1 sequence (P16422 24-314): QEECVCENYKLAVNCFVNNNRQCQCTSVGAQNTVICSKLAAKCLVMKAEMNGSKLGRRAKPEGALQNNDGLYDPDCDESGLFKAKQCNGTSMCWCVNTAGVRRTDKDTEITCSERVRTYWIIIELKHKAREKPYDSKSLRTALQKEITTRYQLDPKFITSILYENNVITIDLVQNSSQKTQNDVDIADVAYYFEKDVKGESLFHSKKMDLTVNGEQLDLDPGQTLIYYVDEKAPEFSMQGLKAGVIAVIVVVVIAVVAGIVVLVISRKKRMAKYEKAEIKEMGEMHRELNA


Tests used:
[1] = test system: Breast cancer T-47D cells; assay: Antibody cytotoxicity assay (Annexin V + PI), T-47D; type: cell-based; details: for Induction of cell death (in words): 1, 3 and 10 μg/ml, overnight; for Cytotoxic effect (Annexin V + PI staining, dead cells): 17-20 hr
Description: (§1) After a 17-20 hr incubation at 37° C., cells were stained with 0.3 μl of FITC-conjugated Annexin V (Strong Biotech Corp. Cat. No. AVK250) in 50 μl Annexin V binding buffer (Strong Biotech Corp. Cat. No. AVK250) at RT for 20 min. After wash, the cells were then stained with 0.3 μl of propidium iodide in 200 μl Annexin V binding buffer. Annexin V and Propidium Iodide were used as a joint indicator for cell death. The data were acquired with BD FACSCalibur based on an acquisition of 3,000-5,000 cells and analyzed with the Cell Quest software. The combined percentages of the Annexin V+/PI+, Annexin V+/PI− and Annexin V−/PI+populations were considered as dead cells.

[2] = test system: COLO 205 colon cancer cells; assay: Cytotoxicity of anti-EpCAM antibodies in combination with oxaliplatin in COLO 205; type: cell-based, human; details: 24 hr
Description: Oxaliplatin, combined with infusional administration of 2 other chemotherapy drugs, 5-fluorouracil/leucovorin (5-FU/LV), is now considered as one of the as first-line treatments for people with advanced carcinoma of the colon or rectum (André et al. (2004) N Engl J Med 350(23):2343-2351). To test the cytotoxicity of anti-EpCAM antibodies in the presence of oxaliplatin, 1×10^5 COLO 205 cells were seeded to each well of a 96-well plate, and then 0.03, 0.3 and 3 μg/ml of anti-EpCAM or control (9E10) mAbs in combination with oxaliplatin at concentration of 0, 0.01, 0.1, and 1 μg/ml diluted in the medium were added into the cells. After a 24-hr incubation at 37° C., the cells were stained with 0.3 μl of FITC-conjugated Annexin V (Strong Biotech Corp. Cat. No. AVK250) in 50 μl Annexin V binding buffer (Strong Biotech Corp. Cat. No. AVK250) at RT for 20 min. After wash, the cells were then stained with 0.3 μl of propidium iodide in 200 μl Annexin V binding buffer. Annexin V and Propidium Iodide were used as a joint indicator for measuring cell death. The data were acquired with BD FACSCalibur based on an acquisition of 3,000-5,000 cells and analyzed with the Cell Quest software. The combined percentages of the Annexin V+/PI+, Annexin V+/PI− and Annexin V−/PI+populations were considered as dead cells.

[3] = test system: Gastric cancer NCI-N87 cells; assay: Antibody cytotoxicity assay (Annexin V + PI), NCI-N87; type: cell-based; details: for Induction of cell death (in words): 1, 3 and 10 μg/ml, overnight; for Cytotoxic effect (Annexin V + PI staining, dead cells): 17-20 hr
Description: as §1

CHO parental cells = assay: FACS binding of anti-EpCAM antibodies to CHO parental cells; parameters: species or system Chinese hamster; details: antibody 0.1 μg/ml; HPS at 300x dilution
Description: (§2) 1×10^5 CHO/EpCAM or CHO parental cells were seeded in each well of a v-bottomed 96-well plate and incubated with purified anti-EpCAM antibodies or mouse IgG control antibody 9E10 at concentration of 0.1 μg/ml. A 300× dilution of human cell hyper-immune serum (HPS 300×) was used as binding positive control for both cell lines here. After 1 hr incubation at 4° C., cells were washed twice with 200 μl FACS buffer (1×PBS containing 1% FBS), stained with 100 μl of 1 μg/ml goat-anti-mouse IgG-PE (Southern Biotech, Cat. No. 1032-09) in FACS buffer and then incubated at 4° C. for 30 min. Cells were washed thrice with FACS buffer and analyzed by flow cytometry (BD LSR, BD Life Sciences).

[4] = test system: Lung cancer NCI-H520 cells; assay: Antibody cytotoxicity assay (Annexin V + PI), NCI-H520; type: cell-based; details: for Induction of cell death (in words): 1, 3 and 10 μg/ml, overnight; for Cytotoxic effect (Annexin V + PI staining, dead cells): 17-20 hr
Description: as §1

[5] = test system: Colorectal cancer DLD-1 cells; assay: Antibody cytotoxicity assay (Annexin V + PI), DLD-1; type: cell-based; details: for Induction of cell death (in words): 1, 3 and 10 μg/ml, overnight; for Cytotoxic effect (Annexin V + PI staining, dead cells): 17-20 hr
Description: as §1

[6] = biological target: T1, human EpCAM (CHO/EpCAM cells); assay: FACS binding of anti-EpCAM antibodies to CHO/EpCAM cells; details: antibody 0.1 μg/ml; HPS at 300x dilution
Description: The cDNAs encoding full-length of human EpCAM (aa 1-314) were amplified by PCR from the cDNA pool generated from T-47D cells and cloned into the modified pcDNA 3.1/Myc-His(+) A vector (Invitrogen), followed by transfecting into Chinese hamster ovary (CHO) cells at 80-90% confluence in 6-well culture dishes, using Lipofectamine 2000 (Invitrogen, Cat. No. 11668-500). Transfectants were selected in F12/10% FBS medium containing 600 ug/ml Hygromycin B (C.A. IN-10687-010). Transfected cells expressing hEpCAM were identified by flow cytometry with anti-EpCAM antibodies.
as §2

[7] = test system: Ovarian cancer NIH:OVCAR-3 cells; assay: Antibody cytotoxicity assay (Annexin V + PI), NIH:OVCAR-3; type: cell-based; details: for Induction of cell death (in words): 1, 3 and 10 μg/ml, overnight; for Cytotoxic effect (Annexin V + PI staining, dead cells): 17-20 hr
Description: as §1

[8] = test system: Prostate cancer LNCaP cells; assay: Antibody cytotoxicity assay (Annexin V + PI), LNCaP; type: cell-based; details: for Induction of cell death (in words): 1, 3 and 10 μg/ml, overnight; for Cytotoxic effect (Annexin V + PI staining, dead cells): 17-20 hr
Description: as §1

[9] = test system: Pharynx cancer FaDu cells; assay: Antibody cytotoxicity assay (Annexin V + PI), FaDu; type: cell-based; details: for Induction of cell death (in words): 1, 3 and 10 μg/ml, overnight; for Cytotoxic effect (Annexin V + PI staining, dead cells): 17-20 hr
Description: as §1

[10] = mAb 0.03 μg/ml, oxaliplatin 0 μg/ml
[11] = mAb 0.3 μg/ml + oxaliplatin 1 μg/ml
[12] = mAb 0.3 μg/ml, oxaliplatin 0 μg/ml
[13] = mAb 3 μg/ml + oxaliplatin 0.01 μg/ml
[14] = mAb 3 μg/ml + oxaliplatin 1 μg/ml
[15] = mAb 3 μg/ml, oxaliplatin 0 μg/ml

Molecule | Induction of cell death (in words) [1] | Cytotoxic effect (Annexin V + PI staining, dead cells) ([1]; mAb 1.0 μg/ml) [%] | Cytotoxic effect (Annexin V + PI staining, dead cells) ([1]; mAb 3.0 μg/ml) [%] | Cytotoxic effect (Annexin V + PI staining, dead cells) ([1]; mAb 10 μg/ml) [%] | % of Annexin V + PI staining (untreated background subtracted) [2, 10] [%] | % of Annexin V + PI staining (untreated background subtracted) [2, 11] [%] | % of Annexin V + PI staining (untreated background subtracted) [2, 12] [%] | % of Annexin V + PI staining (untreated background subtracted) [2, 13] [%] | % of Annexin V + PI staining (untreated background subtracted) [2, 14] [%] | % of Annexin V + PI staining (untreated background subtracted) [2, 15] [%] | Induction of cell death (in words) [3] | Cytotoxic effect (Annexin V + PI staining, dead cells) ([3]; mAb 1.0 μg/ml) [%] | Cytotoxic effect (Annexin V + PI staining, dead cells) ([3]; mAb 3.0 μg/ml) [%] | Cytotoxic effect (Annexin V + PI staining, dead cells) ([3]; mAb 10 μg/ml) [%] | Binding (FACS, Mean fluorescence intensity (MFI)) CHO (CHO parental cells) | Induction of cell death (in words) [4] | Cytotoxic effect (Annexin V + PI staining, dead cells) ([4]; mAb 1.0 μg/ml) [%] | Cytotoxic effect (Annexin V + PI staining, dead cells) ([4]; mAb 3.0 μg/ml) [%] | Cytotoxic effect (Annexin V + PI staining, dead cells) ([4]; mAb 10 μg/ml) [%] | Induction of cell death (in words) [5] | further results
1F10: murine anti-human EpCAM monoclonal antibody (IgG1, λ1), hybridoma m338-1F10.3; VH SEQ ID NO:11, VL SEQ ID NO:13 (antibody, listed as Mus musculus, V domains shown) VH: EVKLLESGGGLVQPGGSLKLSCAASGFDFSRYWMSWVRQAPGKGLEWIGEINPDSSTMNYTPSLKDKFIISRDNAKNTLYLQMSKVRSEDTALYYCARGAYAMDYWGQGTSVTVSS VL: QAVVTQESALTTSPGETVTLTCRSSTGAVTTSNNANWVQEKPDHLFTGLIGATNNRAPGVPARFSGSLIGDKAALTITGAQTEDEAIYFCALWYINHWVFGGGTKLTVLG | substantial cell death | 51 | 50 | 50 | −1 | 22 | 6 | 52 | 61 | 54 | substantial cell death | 57 | 57 | 57 | 6 | substantial cell death | 40 | 46 | 57 | substantial cell death | % of Annexin V + PI staining (untreated background subtracted) ([2]; mAb 0.03 μg/ml + oxaliplatin 0.01 μg/ml): −1%; % of Annexin V + PI staining (untreated background subtracted) ([2]; mAb 0.03 μg/ml + oxaliplatin 1 μg/ml): 5%; % of Annexin V + PI staining (untreated background subtracted) ([2]; mAb 3 μg/ml + oxaliplatin 0.1 μg/ml): 57%; Cytotoxic effect (Annexin V + PI staining, dead cells) ([5]; mAb 1.0 μg/ml): 65%; Cytotoxic effect (Annexin V + PI staining, dead cells) ([5]; mAb 3.0 μg/ml): 65%; Cytotoxic effect (Annexin V + PI staining, dead cells) ([5]; mAb 10 μg/ml): 61%; Binding (FACS, Mean fluorescence intensity (MFI)) CHO/EpCAM [6]: 5634; Induction of cell death (in words) [7]: substantial cell death; Cytotoxic effect (Annexin V + PI staining, dead cells) ([7]; mAb 1.0 μg/ml): 53%; Cytotoxic effect (Annexin V + PI staining, dead cells) ([7]; mAb 3.0 μg/ml): 57%; Cytotoxic effect (Annexin V + PI staining, dead cells) ([7]; mAb 10 μg/ml): 59%; Induction of cell death (in words) [8]: substantial cell death; Cytotoxic effect (Annexin V + PI staining, dead cells) ([8]; mAb 1.0 μg/ml): 47%; Cytotoxic effect (Annexin V + PI staining, dead cells) ([8]; mAb 3.0 μg/ml): 53%; Cytotoxic effect (Annexin V + PI staining, dead cells) ([8]; mAb 10 μg/ml): 48%; Induction of cell death (in words) [9]: substantial cell death; Cytotoxic effect (Annexin V + PI staining, dead cells) ([9]; mAb 1.0 μg/ml): 44%; Cytotoxic effect (Annexin V + PI staining, dead cells) ([9]; mAb 3.0 μg/ml): 42%; Cytotoxic effect (Annexin V + PI staining, dead cells) ([9]; mAb 10 μg/ml): 45%
1G10: murine anti-human EpCAM monoclonal antibody (IgG1, K), hybridoma m290-1G10; VH SEQ ID NO:7, VL SEQ ID NO:9 (antibody, listed as Mus musculus, V domains shown) VH: QIQLVQSGPELKKPGETVKISCKASGYTFTNYGMNWVKQAPGKGFKWMGWINTYTGEPTYADDFKGRFAFSLETSASTAYLQINNLQNEDMATYFCARWGYDFDYWGQGTTLTVSS VL: QIVLTQSPAIMSSSPGEKVTMTCSASSSISYMNWYQQKPGTSPKRWIYDTSKLASGVPARFSGSGSGTSYSLTISSMEAEDAATYYCHQRSSYPYTFGGGTKLEIKR | substantial cell death | 45 | 58 | 64 | 2 | 10 | 5 | 38 | 54 | 46 | substantial cell death | 50 | 60 | 60 | 5 | substantial cell death | 32 | 41 | 55 | substantial cell death | % of Annexin V + PI staining (untreated background subtracted) ([2]; mAb 0.03 μg/ml + oxaliplatin 0.1 μg/ml): 2%; % of Annexin V + PI staining (untreated background subtracted) ([2]; mAb 0.3 μg/ml + oxaliplatin 0.01 μg/ml): 4%; % of Annexin V + PI staining (untreated background subtracted) ([2]; mAb 0.3 μg/ml + oxaliplatin 0.1 μg/ml): 5%; Cytotoxic effect (Annexin V + PI staining, dead cells) ([5]; mAb 1.0 μg/ml): 28%; Cytotoxic effect (Annexin V + PI staining, dead cells) ([5]; mAb 3.0 μg/ml): 40%; Cytotoxic effect (Annexin V + PI staining, dead cells) ([5]; mAb 10 μg/ml): 60%; Binding (FACS, Mean fluorescence intensity (MFI)) CHO/EpCAM [6]: 6178; Induction of cell death (in words) [7]: substantial cell death; Cytotoxic effect (Annexin V + PI staining, dead cells) ([7]; mAb 1.0 μg/ml): 40%; Cytotoxic effect (Annexin V + PI staining, dead cells) ([7]; mAb 3.0 μg/ml): 50%; Cytotoxic effect (Annexin V + PI staining, dead cells) ([7]; mAb 10 μg/ml): 52%; Induction of cell death (in words) [8]: substantial cell death; Cytotoxic effect (Annexin V + PI staining, dead cells) ([8]; mAb 1.0 μg/ml): 42%; Cytotoxic effect (Annexin V + PI staining, dead cells) ([8]; mAb 3.0 μg/ml): 55%; Cytotoxic effect (Annexin V + PI staining, dead cells) ([8]; mAb 10 μg/ml): 45%; Induction of cell death (in words) [9]: substantial cell death; Cytotoxic effect (Annexin V + PI staining, dead cells) ([9]; mAb 1.0 μg/ml): 40%; Cytotoxic effect (Annexin V + PI staining, dead cells) ([9]; mAb 3.0 μg/ml): 50%; Cytotoxic effect (Annexin V + PI staining, dead cells) ([9]; mAb 10 μg/ml): 51%
